# Reference: PMC3795062
# Target: endogenous β-catenin of HEK293 cells (human (endogenous in HEK293)) (UniProt P35222)
# UniProt P35222, sequence (P35222 whole entry): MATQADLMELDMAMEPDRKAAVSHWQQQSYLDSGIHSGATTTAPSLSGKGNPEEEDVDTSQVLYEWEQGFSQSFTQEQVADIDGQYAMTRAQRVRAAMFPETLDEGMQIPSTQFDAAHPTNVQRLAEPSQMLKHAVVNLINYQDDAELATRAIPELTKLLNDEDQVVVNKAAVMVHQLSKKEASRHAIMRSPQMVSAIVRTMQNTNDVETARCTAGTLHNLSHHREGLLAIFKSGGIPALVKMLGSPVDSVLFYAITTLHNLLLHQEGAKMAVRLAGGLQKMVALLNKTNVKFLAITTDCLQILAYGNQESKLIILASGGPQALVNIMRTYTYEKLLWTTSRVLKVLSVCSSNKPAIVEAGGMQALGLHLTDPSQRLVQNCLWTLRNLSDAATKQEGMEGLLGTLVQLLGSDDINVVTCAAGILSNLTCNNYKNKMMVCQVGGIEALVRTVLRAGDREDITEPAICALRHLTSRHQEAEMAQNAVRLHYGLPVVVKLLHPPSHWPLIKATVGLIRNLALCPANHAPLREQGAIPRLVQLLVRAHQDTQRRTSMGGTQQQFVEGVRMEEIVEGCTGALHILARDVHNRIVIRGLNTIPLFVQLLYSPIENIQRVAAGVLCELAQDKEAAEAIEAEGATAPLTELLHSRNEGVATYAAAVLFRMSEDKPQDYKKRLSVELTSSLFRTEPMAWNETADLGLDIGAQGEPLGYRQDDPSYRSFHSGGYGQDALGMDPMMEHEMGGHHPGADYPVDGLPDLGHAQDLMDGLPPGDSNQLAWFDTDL
substance,measurement,value
WT-Nef expressed in HEK293 cells (natural protein),"inhibition of the TopFlash (TCF-luciferase) reporter, TopFlash/FopFlash ratio, HEK293 cells with Wnt-conditioned media, 50 ng Nef plasmid",40%
